In article PMC8948829, “The Escherichia coli Amino Acid Uptake Protein CycA: Regulation of Its Synthesis and Practical Application in L-Isoleucine Production” (Microorganisms, 2022) one finds binding data, which are given here for two sequences.

This data set addresses T1, Crp (CRP, cAMP receptor protein) (Escherichia coli (purified from strain SA500/pHA5)) (UniProt P0ACJ8).
T1 sequence: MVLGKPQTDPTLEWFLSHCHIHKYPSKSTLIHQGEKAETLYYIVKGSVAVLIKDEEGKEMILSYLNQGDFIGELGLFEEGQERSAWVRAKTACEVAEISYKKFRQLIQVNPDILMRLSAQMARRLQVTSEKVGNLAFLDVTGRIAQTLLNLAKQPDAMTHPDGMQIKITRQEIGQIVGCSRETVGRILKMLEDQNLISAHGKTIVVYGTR
Put plainly: EMSA. The conditions noted are these: 10 mM Tris-HCl pH 7.5, 1 mM EDTA, 100 mM KCl, 1 mM DTT, BSA (printed 10 g/mL), 5% glycerol, 20 uM cAMP, room temperature 30 min; 6% native PAGE, 1x TAE, 4 C.

Consider “CGTTCAGCACCCTGGTGTTTGAAGTCGAACTGCTGGAAATCCTCTAAGCAGCGCATTCTGTTCCCCTCGAACGAGAGGGGAGCAGGCATTCAGCAATAAACCCTTCAGTTTGCCAAACGGCGCTATTTTGTGTTGCAAAGACCCCGTA (double strand) [PcycA fragment 3 (148 bp, no predicted Crp site)]”, for which the binding entry is recorded as “no binding”.
As to “TGTTTAAAGTGAGTGTCATATCACGGTGATAACGCGAAACAGCTCACAAAAATACACGCTTACGGGGTCTTTGCAACACAAAATAGCGCCGTTTGGCAAACTGAAGGGTTTATTGCTGAATGCCTGCTCCCCTCTCGTTCGAGGGGAACAGAATGCGCTGCTTAGAGGATTTCCAGCAGTTCGACTTCAAACACCAGGGTGCTGAACG (double strand) [PcycA fragment 1 (208 bp)]”, the binding result was “binds”.
